Source: the supplement of paper PMC5998384

What was measured:
HeLa Kyoto [1] = assay: solubility in G1/S (NP-40 vs SDS abundance) (log2 ratio); higher = more soluble; details: cell cycle stage: G1/S
HeLa Kyoto [2] = assay: solubility change mitosis vs G1/S (difference of NP-40 vs SDS log2 ratios) (log2 ratio difference); higher = more soluble in mitosis
HeLa Kyoto [3] = assay: thermal stability score vs G1/S (z-score of summed log2 fold changes over temperatures); higher = more thermally stable than in G1/S
HeLa Kyoto [4] = assay: melting temperature (median over replicates), in situ; higher = more thermally stable
[5] = cell cycle stage: early G1 (4.5 h after nocodazole release)
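Wherever melting temperature (median over replicates), in situ is given: HeLa Kyoto cells synchronized by double thymidine or nocodazole block, proteins quantified by TMT10plex mass spectrometry, three independent biological replicates.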
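Wherever solubility change mitosis vs G1/S (difference of NP-40 vs SDS log2 ratios) is given: synchronized HeLa Kyoto cells (double thymidine block for G1/S, nocodazole release for mitosis), protein amounts in NP-40 versus SDS lysates quantified by mass spectrometry, three biological replicates.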
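Wherever solubility in G1/S (NP-40 vs SDS abundance) is given: HeLa Kyoto cells arrested at G1/S by double thymidine block, proteins quantified by TMT10plex mass spectrometry in mild NP-40 versus SDS extracts, three biological replicates.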
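Wherever thermal stability score vs G1/S (z-score of summed log2 fold changes over temperatures) is given: synchronized HeLa Kyoto cells, proteins quantified by TMT10plex mass spectrometry, three biological replicates, mitosis taken 0.5 h after nocodazole release, G1/S directly after double thymidine block.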

| Substance | solubility in G1/S (log2) (HeLa Kyoto [1]) | solubility change mitosis (log2) (HeLa Kyoto [2]) | thermal stability score (HeLa Kyoto [3]; [5]) | thermal stability score (HeLa Kyoto [3]; cell cycle stage: mitosis) | melting temperature (HeLa Kyoto [4]; cell cycle stage: G1/S) [°C] | melting temperature (HeLa Kyoto [4]; cell cycle stage: mitosis) [°C] |
| --- | --- | --- | --- | --- | --- | --- |
| MLKSKTFLKKTRAGGVMKIVREHYLRDDIGCGAPGCAACGGAHEGPALEPQPQDPASSVCPQPHYLLPDTNVLLHQIDVLEDPAIRNVIVLQTVLQEVRNRSAPVYKRIRDVTNNQEKHFYTFTNEHHRETYVEQEQGENANDRNDRAIRVAAKWYNEHLKKMSADNQLQVIFITNDRRNKEKAIEEGIPAFTCEEYVKSLTANPELIDRLACLSEEGNEIESGKIIFSEHLPLSKLQQGIKSGTYLQGTFRASRENYLEATVWIHGDNEENKEIILQGLKHLNRAVHEDIVAVELLPKSQWVAPSSVVLHDEGQNEEDVEKEEETERMLKTAVSEKMLKPTGRVVGIIKRNWRPYCGMLSKSDIKESRRHLFTPADKRIPRIRIETRQASTLEGRRIIVAIDGWPRNSRYPNGHFVRNLGDVGEKETETEVLLLEHDVPHQPFSQAVLSFLPKMPWSITEKDMKNREDLRHLCICSVDPPGCTDIDDALHCRELENGNLEVGVHIADVSHFIRPGNALDQESARRGTTVYLCEKRIDMVPELLSSNLCSLKCDVDRLAFSCIWEMNHNAEILKTKFTKSVINSKASLTYAEAQLRIDSANMNDDITTSLRGLNKLAKILKKRRIEKGALTLSSPEVRFHMDSETHDPIDLQTKELRETNSMVEEFMLLANISVAKKIHEEFSEHALLRKHPAPPPSNYEILVKAARSRNLEIKTDTAKSLAESLDQAESPTFPYLNTLLRILATRCMMQAVYFCSGMDNDFHHYGLASPIYTHFTSPIRRYADVIVHRLLAVAIGADCTYPELTDKHKLADICKNLNFRHKMAQYAQRASVAFHTQLFFKSKGIVSEEAYILFVRKNAIVVLIPKYGLEGTVFFEEKDKPNPQLIYDDEIPSLKIEDTVFHVFDKVKVKIMLDSSNLQHQKIRMSLVEPQIPGISIPTDTSNMDLNGPKKKKMKLGK [DIS3] | -0.0366 | -0.0946 | 1.5 | 3.37 | 47.9 | 49.2 |
| MLLLAAAFLVAFVLLLYMVSPLISPKPLALPGAHVVVTGGSSGIGKCIAIECYKQGAFITLVARNEDKLLQAKKEIEMHSINDKQVVLCISVDVSQDYNQVENVIKQAQEKLGPVDMLVNCAGMAVSGKFEDLEVSTFERLMSINYLGSVYPSRAVITTMKERRVGRIVFVSSQAGQLGLFGFTAYSASKFAIRGLAEALQMEVKPYNVYITVAYPPDTDTPGFAEENRTKPLETRLISETTSVCKPEQVAKQIVKDAIQGNFNSSLGSDGYMLSALTCGMAPVTSITEGLQQVVTMGLFRTIALFYLGSFDSIVRRCMMQREKSENADKTA [KDSR] | -0.701 | -0.0925 | -2.49 | -3.38 | 60 | 57.9 |
| MLLPLLLLLPMCWAVEVKRPRGVSLTNHHFYDESKPFTCLDGSATIPFDQVNDDYCDCKDGSDEPGTAACPNGSFHCTNTGYKPLYIPSNRVNDGVCDCCDGTDEYNSGVICENTCKEKGRKERESLQQMAEVTREGFRLKKILIEDWKKAREEKQKKLIELQAGKKSLEDQVEMLRTVKEEAEKPEREAKEQHQKLWEEQLAAAKAQQEQELAADAFKELDDDMDGTVSVTELQTHPELDTDGDGALSEAEAQALLSGDTQTDATSFYDRVWAAIRDKYRSEALPTDLPAPSAPDLTEPKEEQPPVPSSPTEEEEEEEEEEEEEAEEEEEEEDSEEAPPPLSPPQPASPAEEDKMPPYDEQTQAFIDAAQEARNKFEEAERSLKDMEESIRNLEQEISFDFGPNGEFAYLYSQCYELTTNEYVYRLCPFKLVSQKPKLGGSPTSLGTWGSWIGPDHDKFSAMKYEQGTGCWQGPNRSTTVRLLCGKETMVTSTTEPSRCEYLMELMTPAACPEPPPEAPTEDDHDEL [PRKCSH] | 0.337 | -0.0303 | 0.00878 | 0.443 | 55 | 57.4 |
| MLLSLVLHTYSMRYLLPSVVLLGTAPTYVLAWGVWRLLSAFLPARFYQALDDRLYCVYQSMVLFFFENYTGVQILLYGDLPKNKENIIYLANHQSTVDWIVADILAIRQNALGHVRYVLKEGLKWLPLYGCYFAQHGGIYVKRSAKFNEKEMRNKLQSYVDAGTPMYLVIFPEGTRYNPEQTKVLSASQAFAAQRGLAVLKHVLTPRIKATHVAFDCMKNYLDAIYDVTVVYEGKDDGGQRRESPTMTEFLCKECPKIHIHIDRIDKKDVPEEQEHMRRWLHERFEIKDKMLIEFYESPDPERRKRFPGKSVNSKLSIKKTLPSMLILSGLTAGMLMTDAGRKLYVNTWIYGTLLGCLWVTIKA [AGPAT5] | -0.125 | -0.0679 | 0.0279 | -1.01 | 52.1 | 52.6 |
| MLLT4 | -0.184 | 0.00908 | -0.182 | -0.125 | 50.9 | 50.3 |
| MLPAALLRRPGLGRLVRHARAYAEAAAAPAAASGPNQMSFTFASPTQVFFNGANVRQVDVPTLTGAFGILAAHVPTLQVLRPGLVVVHAEDGTTSKYFVSSGSIAVNADSSVQLLAEEAVTLDMLDLGAAKANLEKAQAELVGTADEATRAEIQIRIEANEALVKALE [ATP5D] | 0.603 | -0.0082 | -2.35 | -1.13 | 55.7 | 54.5 |
| MLPLLRCVPRVLGSSVAGLRAAAPASPFRQLLQPAPRLCTRPFGLLSVRAGSERRPGLLRPRGPCACGCGCGSLHTDGDKAFVDFLSDEIKEERKIQKHKTLPKMSGGWELELNGTEAKLVRKVAGEKITVTFNINNSIPPTFDGEEEPSQGQKVEEQEPELTSTPNFVVEVIKNDDGKKALVLDCHYPEDEVGQEDEAESDIFSIREVSFQSTGESEWKDTNYTLNTDSLDWALYDHLMDFLADRGVDNTFADELVELSTALEHQEYITFLEDLKSFVKSQ [C1QBP] | 0.515 | 0.179 | -1.11 | -3.14 | 52.6 | 52 |
| MLPLSLLKTAQNHPMLVELKNGETYNGHLVSCDNWMNINLREVICTSRDGDKFWRMPECYIRGSTIKYLRIPDEIIDMVKEEVVAKGRGRGGLQQQKQQKGRGMGGAGRGVFGGRGRGGIPGTGRGQPEKKPGRQAGKQ [LSM4] | 0.0844 | 0.187 | -3.84 | -4.06 | 58.1 | 54.6 |
| MLQTLYDYFWWERLWLPVNLTWADLEDRDGRVYAKASDLYITLPLALLFLIVRYFFELYVATPLAALLNIKEKTRLRAPPNATLEHFYLTSGKQPKQVEVELLSRQSGLSGRQVERWFRRRRNQDRPSLLKKFREASWRFTFYLIAFIAGMAVIVDKPWFYDMKKVWEGYPIQSTIPSQYWYYMIELSFYWSLLFSIASDVKRKDFKEQIIHHVATIILISFSWFANYIRAGTLIMALHDSSDYLLESAKMFNYAGWKNTCNNIFIVFAIVFIITRLVILPFWILHCTLVYPLELYPAFFGYYFFNSMMGVLQLLHIFWAYLILRMAHKFITGKLVEDERSDREETESSEGEEAAAGGGAKSRPLANGHPILNNNHRKND [CERS2] | 0.0784 | -0.158 | -0.502 | -0.489 | 52.7 | 52.9 |
| MLRAPGCLLRTSVAPAAALAAALLSSLARCSLLEPRDPVASSLSPYFGTKTRYEDVNPVLLSGPEAPWRDPELLEGTCTPVQLVALIRHGTRYPTVKQIRKLRQLHGLLQARGSRDGGASSTGSRDLGAALADWPLWYADWMDGQLVEKGRQDMRQLALRLASLFPALFSRENYGRLRLITSSKHRCMDSSAAFLQGLWQHYHPGLPPPDVADMEFGPPTVNDKLMRFFDHCEKFLTEVEKNATALYHVEAFKTGPEMQNILKKVAATLQVPVNDLNADLIQVAFFTCSFDLAIKGVKSPWCDVFDIDDAKVLEYLNDLKQYWKRGYGYTINSRSSCTLFQDIFQHLDKAVEQKQRSQPISSPVILQFGHAETLLPLLSLMGYFKDKEPLTAYNYKKQMHRKFRSGLIVPYASNLIFVLYHCENAKTPKEQFRVQMLLNEKVLPLAYSQETVSFYEDLKNHYKDILQSCQTSEECELARANSTSDEL [MINPP1] | 0.459 | -0.069 | 4.83 | 4.74 | 54.4 | 55.7 |
| MLRFLAPRLLSLQGRTARYSSAAALPSPILNPDIPYNQLFINNEWQDAVSKKTFPTVNPTTGEVIGHVAEGDRADVDRAVKAAREAFRLGSPWRRMDASERGRLLNRLADLVERDRVYLASLETLDNGKPFQESYALDLDEVIKVYRYFAGWADKWHGKTIPMDGQHFCFTRHEPVGVCGQIIPWNFPLVMQGWKLAPALATGNTVVMKVAEQTPLSALYLASLIKEAGFPPGVVNIITGYGPTAGAAIAQHVDVDKVAFTGSTEVGHLIQKAAGDSNLKRVTLELGGKSPSIVLADADMEHAVEQCHEALFFNMGQCCCAGSRTFVEESIYNEFLERTVEKAKQRKVGNPFELDTQQGPQVDKEQFERVLGYIQLGQKEGAKLLCGGERFGERGFFIKPTVFGGVQDDMRIAKEEIFGPVQPLFKFKKIEEVVERANNTRYGLAAAVFTRDLDKAMYFTQALQAGTVWVNTYNIVTCHTPFGGFKESGNGRELGEDGLKAYTEVKTVTIKVPQKNS [ALDH1B1] | 0.229 | -0.0523 | -1.97 | -1.54 | 52.6 | 52.8 |
| MLRLPTVFRQMRPVSRVLAPHLTRAYAKDVKFGADARALMLQGVDLLADAVAVTMGPKGRTVIIEQSWGSPKVTKDGVTVAKSIDLKDKYKNIGAKLVQDVANNTNEEAGDGTTTATVLARSIAKEGFEKISKGANPVEIRRGVMLAVDAVIAELKKQSKPVTTPEEIAQVATISANGDKEIGNIISDAMKKVGRKGVITVKDGKTLNDELEIIEGMKFDRGYISPYFINTSKGQKCEFQDAYVLLSEKKISSIQSIVPALEIANAHRKPLVIIAEDVDGEALSTLVLNRLKVGLQVVAVKAPGFGDNRKNQLKDMAIATGGAVFGEEGLTLNLEDVQPHDLGKVGEVIVTKDDAMLLKGKGDKAQIEKRIQEIIEQLDVTTSEYEKEKLNERLAKLSDGVAVLKVGGTSDVEVNEKKDRVTDALNATRAAVEEGIVLGGGCALLRCIPALDSLTPANEDQKIGIEIIKRTLKIPAMTIAKNAGVEGSLIVEKIMQSSSEVGYDAMAGDFVNMVEKGIIDPTKVVRTALLDAAGVASLLTTAEVVVTEIPKEEKDPGMGAMGGMGGGMGGGMF [HSPD1] | 0.316 | 0.129 | 1.84 | -0.583 | 55.2 | 55 |
| MLRLVPTGARAIVDMSYARHFLDFQGSAIPQAMQKLVVTRLSPNFREAVTLSRDCPVPLPGDGDLLVRNRFVGVNASDINYSAGRYDPSVKPPFDIGFEGIGEVVALGLSASARYTVGQAVAYMAPGSFAEYTVVPASIATPVPSVKPEYLTLLVSGTTAYISLKELGGLSEGKKVLVTAAAGGTGQFAMQLSKKAKCHVIGTCSSDEKSAFLKSLGCDRPINYKTEPVGTVLKQEYPEGVDVVYESVGGAMFDLAVDALATKGRLIVIGFISGYQTPTGLSPVKAGTLPAKLLKKSASVQGFFLNHYLSKYQAAMSHLLEMCVSGDLVCEVDLGDLSPEGRFTGLESIFRAVNYMYMGKNTGKIVVELPHSVNSKL [ZADH2] | 0.198 | -0.199 | 0.549 | 1.57 | 52.9 | 53.5 |
| MLRSCAARLRTLGALCLPPVGRRLPGSEPRPELRSFSSEEVILKDCSVPNPSWNKDLRLLFDQFMKKCEDGSWKRLPSYKRTPTEWIQDFKTHFLDPKLMKEEQMSQAQLFTRSFDDGLGFEYVMFYNDIEKRMVCLFQGGPYLEGPPGFIHGGAIATMIDATVGMCAMMAGGIVMTANLNINYKRPIPLCSVVMINSQLDKVEGRKFFVSCNVQSVDEKTLYSEATSLFIKLNPAKSLT [THEM4] | 0.0285 | -0.0775 | 0.216 | -1.16 | 54.7 | 56.2 |
